Values of other authors, collected in PMC10551901.

Experiments:
[1] = biological target: Rab32 (Homo sapiens) (UniProt Q13637)
[2] = biological target: Rab38 (Homo sapiens) (UniProt P57729)
[3] = biological target: Rab29 (Homo sapiens) (UniProt O14966)

Measured: Kd

UniProt Q13637, sequence (Q13637 2-225): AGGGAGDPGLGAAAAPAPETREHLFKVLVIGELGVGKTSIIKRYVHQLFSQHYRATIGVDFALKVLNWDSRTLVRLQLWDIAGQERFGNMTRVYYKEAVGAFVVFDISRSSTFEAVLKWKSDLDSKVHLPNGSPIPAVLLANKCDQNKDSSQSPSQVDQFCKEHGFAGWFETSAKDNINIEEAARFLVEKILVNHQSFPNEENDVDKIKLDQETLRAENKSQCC
UniProt P57729, sequence (P57729 whole entry): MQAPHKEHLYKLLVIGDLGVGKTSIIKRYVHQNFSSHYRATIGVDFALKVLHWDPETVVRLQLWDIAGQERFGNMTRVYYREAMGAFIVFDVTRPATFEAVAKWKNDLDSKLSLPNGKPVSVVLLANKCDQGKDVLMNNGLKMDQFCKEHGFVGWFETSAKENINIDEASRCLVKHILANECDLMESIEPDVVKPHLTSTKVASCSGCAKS
UniProt O14966, sequence (O14966 whole entry): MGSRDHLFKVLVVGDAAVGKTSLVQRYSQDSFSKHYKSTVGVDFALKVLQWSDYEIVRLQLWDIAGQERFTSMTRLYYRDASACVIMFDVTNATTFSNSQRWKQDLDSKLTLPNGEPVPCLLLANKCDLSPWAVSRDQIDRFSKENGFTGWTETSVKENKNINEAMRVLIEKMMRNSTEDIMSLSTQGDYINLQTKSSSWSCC

LRRK2 1-552 (from UniProt Q5S007)
2000 nM: all assays above
